Results from patent US20260209345A1 (IOMX THERAPEUTICS, published 2026).

How the values were obtained:
recombinant LILRA1 ECD = target: T1, recombinant LILRA1 ECD (human, UniProt O75019 17-461); test: BLI, IgG on AHC sensor, ECD in solution
T1 construct: whole canonical entry named; also called LILA1
Experimental: (§1) Briefly, IgGs were captured on anti-human capture (AHC) biosensors (Sartorius). […] Subsequently, the sensors were dipped into 1× Kinetics Buffer to measure the dissociation over 420 s. All sensorgrams were double referenced against 1× Kinetics Buffer and unloaded […] sensors to subtract sensor drifts and potential reference binding of the analytes. The affinities were determined by applying a 1:1 binding model.

recombinant LILRA3 = target: T2, recombinant LILRA3 (human, UniProt Q8N6C8 24-439); test: BLI, IgG on AHC sensor, ECD in solution
T2 construct: whole entry named; also called LILRA3 ECD; LILA3
T2 sequence (Q8N6C8 24-439 limits assumed): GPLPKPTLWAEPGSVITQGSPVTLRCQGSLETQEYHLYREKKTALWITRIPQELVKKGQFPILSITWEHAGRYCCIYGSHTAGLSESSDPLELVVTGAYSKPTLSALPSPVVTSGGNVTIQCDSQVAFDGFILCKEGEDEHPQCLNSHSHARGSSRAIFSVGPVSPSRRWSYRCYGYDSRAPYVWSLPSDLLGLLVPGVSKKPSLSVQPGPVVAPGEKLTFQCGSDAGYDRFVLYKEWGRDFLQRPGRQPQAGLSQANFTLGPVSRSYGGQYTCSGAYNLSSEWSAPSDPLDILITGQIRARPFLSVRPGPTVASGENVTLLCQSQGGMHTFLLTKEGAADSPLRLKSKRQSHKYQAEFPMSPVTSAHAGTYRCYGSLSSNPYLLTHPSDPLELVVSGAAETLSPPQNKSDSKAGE
Experimental: as §1

recombinant LILRB2 ECD [1] = target: T3, recombinant LILRB2 ECD (human, UniProt Q8N423 22-460); test: BLI, IgG on AHC sensor, ECD in solution
T3 construct: also called biotinylated LILRB2 ECD
T3 sequence (Q8N423 22-460 limits assumed): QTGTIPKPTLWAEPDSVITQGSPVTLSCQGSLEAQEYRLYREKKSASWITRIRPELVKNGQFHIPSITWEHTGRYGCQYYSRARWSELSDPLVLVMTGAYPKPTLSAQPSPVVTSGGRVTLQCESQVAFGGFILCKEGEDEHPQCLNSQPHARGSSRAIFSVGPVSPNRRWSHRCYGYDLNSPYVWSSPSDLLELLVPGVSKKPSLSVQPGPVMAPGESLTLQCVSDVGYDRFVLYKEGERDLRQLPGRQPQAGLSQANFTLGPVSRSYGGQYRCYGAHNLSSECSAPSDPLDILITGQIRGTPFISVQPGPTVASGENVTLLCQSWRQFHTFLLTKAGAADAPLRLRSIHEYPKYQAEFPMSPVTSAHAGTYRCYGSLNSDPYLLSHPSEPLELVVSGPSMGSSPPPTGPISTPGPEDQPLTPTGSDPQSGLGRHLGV
Experimental: as §1

recombinant LILRB1 ECD [2] = target: T4, recombinant LILRB1 ECD (human, UniProt Q8NHL6 24-461); test: BLI, IgG on AHC sensor, ECD in solution
T4 construct: also called biotinylated LILRB1 ECD
T4 sequence (Q8NHL6 24-461 limits assumed): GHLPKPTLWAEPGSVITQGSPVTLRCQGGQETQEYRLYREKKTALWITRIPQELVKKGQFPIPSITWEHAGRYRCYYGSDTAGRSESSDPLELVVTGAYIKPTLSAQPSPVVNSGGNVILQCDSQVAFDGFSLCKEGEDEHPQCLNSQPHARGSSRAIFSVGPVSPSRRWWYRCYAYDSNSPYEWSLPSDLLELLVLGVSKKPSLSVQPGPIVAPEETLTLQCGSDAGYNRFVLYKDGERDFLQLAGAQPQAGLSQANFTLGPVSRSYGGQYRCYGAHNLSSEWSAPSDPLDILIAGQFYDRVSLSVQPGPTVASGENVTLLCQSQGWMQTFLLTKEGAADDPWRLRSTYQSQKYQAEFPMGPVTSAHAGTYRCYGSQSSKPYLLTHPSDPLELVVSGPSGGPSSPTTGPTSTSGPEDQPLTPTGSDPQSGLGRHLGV
Experimental: as §1

recombinant LILRB2 ECD [3] = target: T3, recombinant LILRB2 ECD; test: ELISA, LILRB2 ECD binding to HLA-G-Fc
Experimental: (§2) HLA-G inhibition was tested by ELISA. 384-well Maxisorp plates were coated with 2 ug/mL B2M-HLA-G fused to a mouse IgG2a-Fc and the plates were blocked with 2% (w/v) BSA in PBST. […] 15 ul of the antibody dilution series (300 nM to 0.3 nM) were mixed with 30 μL of the pre-mixed LILRB/Avidin-HRP solution (final antibody concentration 100 nM to 0.1 nM) and incubated for 1 h at room temperature. After three wash cycles with PBST, 20 μL of the antibody/LILRB/Avidin-HRP solution was transferred to the plate with immobilized HLA-G and incubated for 15 min at room temperature. After three wash cycles with PBST, residual LILRB binding to HLA-G was detected by developing the ELISA with TMB substrate.

recombinant LILRB1 ECD [4] = target: T4, recombinant LILRB1 ECD; test: ELISA, LILRB1 ECD binding to HLA-G-Fc
Experimental: as §2

T1 sequence (O75019 17-461 limits assumed): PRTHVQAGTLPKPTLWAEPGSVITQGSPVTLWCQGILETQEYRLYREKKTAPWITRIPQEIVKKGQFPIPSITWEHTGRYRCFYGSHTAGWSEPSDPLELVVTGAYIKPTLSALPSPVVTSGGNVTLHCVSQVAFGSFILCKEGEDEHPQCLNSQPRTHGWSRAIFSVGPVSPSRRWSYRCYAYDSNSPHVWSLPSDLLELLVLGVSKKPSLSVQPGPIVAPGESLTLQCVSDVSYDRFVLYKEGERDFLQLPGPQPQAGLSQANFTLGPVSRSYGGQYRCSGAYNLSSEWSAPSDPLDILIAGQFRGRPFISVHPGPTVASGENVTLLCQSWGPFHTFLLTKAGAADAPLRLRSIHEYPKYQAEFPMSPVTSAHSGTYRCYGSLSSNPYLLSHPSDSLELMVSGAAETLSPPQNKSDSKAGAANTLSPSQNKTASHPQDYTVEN

Kd (recombinant LILRA1 ECD)	Kd (recombinant LILRA3)	Kd (recombinant LILRB2 ECD [1])	Kd (recombinant LILRB1 ECD [2])	IC50 (recombinant LILRB2 ECD [3])	IC50 (recombinant LILRB1 ECD [4])	Binder
1080 nM	622 nM	4.2 nM	6.3 nM	4.6 nM	4.5 nM	A-013 (antibody, V domains shown, tested as IgG) VH: QVQLVQSGAEVKKPGSSVKVSCKASGGTFRQEAFSWVRQAPGQGLEWMGSIIPIFYSSNYAQKFQGRVTITADESTSTAYMELSSLRSEDTAVYYCAKDLGTYSSGWPYYYGMDVWGQGTTVTVSS VL: SYELTQPPSVSVSPGQTASITCSGDKLGDKYASWYQQKPGQSPVLVIYQDSKRPSGIPERFSGSNSGNTATLTISGTQAEDEADYYCQSTTHTSFVFGGGTKLTVL
808 nM	212 nM	2.7 nM	6.2 nM	5.1 nM	5 nM	A-018 (antibody, V domains shown, tested as IgG) VH: QVQLVQSGAEVKKPGSSVKVSCKASGGTFSTSAISWVRQAPGQGLEWMGGIIPIFYTANYAQKFQGRVTITADESTSTAYMELSSLRSEDTAVYYCAKDLGTYSSGWPYYYGMDVWGQGTTVTVSS VL: SYELTQPPSVSVSPGQTASITCSGDKLGDKYASWYQQKPGQSPVLVIYQDSKRPSGIPERFSGSNSGNTATLTISGTQAEDEADYYCQSTTHTSFVFGGGTKLTVL
1030 nM	144 nM	3.9 nM	20.7 nM	4.9 nM	4 nM	A-019 (antibody, V domains shown, tested as IgG) VH: QVQLVQSGAEVKKPGSSVKVSCKASGYTFTTSAMNWVRQAPGQGLEWMGGIIPYFSTANYAPKFQGRVTITADESTSTAYMELSSLRSEDTAVYYCAKDLGTYSSGWPYYYGMDVWGQGTTVTVSS VL: SYELTQPPSVSVSPGQTASITCSGDKLGDKYASWYQQKPGQSPVLVIYQDSKRPSGIPERFSGSNSGNTATLTISGTQAEDEADYYCQSTTHTSFVFGGGTKLTVL
734 nM	1250 nM	30.8 nM	12.9 nM	3.5 nM	1.7 nM	A-035 (antibody, V domains shown, tested as IgG) VH: QVQLVQSGAEVKKPGSSVKVSCKASGGTFSSYAISWVRQAPGQGLEWMGGIIPIFGTANYAQKFQGRVTITADESTSTAYMELSSLRSEDTAVYYCAKDLGTYSSGWPYYYGMDVWGQGTTVTVSS VL: SYELTQPPSVSVSPGQTASITCSGDKLGDKYASWYQQKPGQSPVLVIYQDSKRPSGIPERFSGSNSGNTATLTISGTQAEDEADYYCQLSHGTLLVFGGGTKLTVL
402 nM	116 nM	1.4 nM	6.5 nM	5.1 nM	4.4 nM	A-016 (antibody, V domains shown, tested as IgG) VH: QVQLVQSGAEVKKPGSSVKVSCKASGGTFSSYAFNWVRQAPGQGLEWMGSIIPIFKTANYAQKFQGRVTITADESTSTAYMELSSLRSEDTAVYYCAKDLGTYSSGWPYYYGMDVWGQGTTVTVSS VL: SYELTQPPSVSVSPGQTASITCSGDKLGDKYASWYQQKPGQSPVLVIYQDSKRPSGIPERFSGSNSGNTATLTISGTQAEDEADYYCQSTTHTSFVFGGGTKLTVL
541 nM	157 nM	3.1 nM	4.9 nM	5 nM	4.2 nM	A-021 (antibody, V domains shown, tested as IgG) VH: QVQLVQSGAEVKKPGSSVKVSCKASGGSITSYAFAWVRQAPGQGLEWMGGIIPGFYAANYAQKFQGRVTITADESTSTAYMELSSLRSEDTAVYYCAKDLGTYSSGWPYYYGMDVWGQGTTVTVSS VL: SYELTQPPSVSVSPGQTASITCSGDKLGDKYASWYQQKPGQSPVLVIYQDSKRPSGIPERFSGSNSGNTATLTISGTQAEDEADYYCQSTTHTSFVFGGGTKLTVL
316 nM	392 nM	2.9 nM	21.2 nM	3.8 nM	3.7 nM	A-020 (antibody, V domains shown, tested as IgG) VH: QVQLVQSGAEVKKPGSSVKVSCKASGGTFQTYAISWVRQAPGQGLEWMGSIIPKFYQSNYAYKFQGRVTITADESTSTAYMELSSLRSEDTAVYYCAKDLGTYSSGWPYYYGMDVWGQGTTVTVSS VL: SYELTQPPSVSVSPGQTASITCSGDKLGDKYASWYQQKPGQSPVLVIYQDSKRPSGIPERFSGSNSGNTATLTISGTQAEDEADYYCQSTTHTSFVFGGGTKLTVL
591 nM	223 nM	1.7 nM	2.3 nM	4.4 nM	4.5 nM	A-017 (antibody, V domains shown, tested as IgG) VH: QVQLVQSGAEVKKPGSSVKVSCKASGGTFSSYAISWVRQAPGQGLEWMGGIIPYFSLANYAPKFQGRVTITADESTSTAYMELSSLRSEDTAVYYCAKDLGTYSSGWPYYYGMDVWGQGTTVTVSS VL: SYELTQPPSVSVSPGQTASITCSGDKLGDKYASWYQQKPGQSPVLVIYQDSKRPSGIPERFSGSNSGNTATLTISGTQAEDEADYYCQSTTHTSFVFGGGTKLTVL
471 nM	58.8 nM	2.3 nM	4.4 nM	4.2 nM	3.8 nM	A-014 (antibody, V domains shown, tested as IgG) VH: QVQLVQSGAEVKKPGSSVKVSCKASGGTFSSYAINWVRQAPGQGLEWMGGIIPIFHTSNYAQKFQGRVTITADESTSTAYMELSSLRSEDTAVYYCAKDLGTYSSGWPYYYGMDVWGQGTTVTVSS VL: SYELTQPPSVSVSPGQTASITCSGDKLGDKYASWYQQKPGQSPVLVIYQDSKRPSGIPERFSGSNSGNTATLTISGTQAEDEADYYCQSTTHTSFVFGGGTKLTVL
2690 nM	678 nM	82.7 nM	16.4 nM	5.6 nM	3.3 nM	A-034 (antibody, V domains shown, tested as IgG) VH: QVQLVQSGAEVKKPGSSVKVSCKASGGTFSSYAISWVRQAPGQGLEWMGGIIPIFGTANYAQKFQGRVTITADESTSTAYMELSSLRSEDTAVYYCAKDLGTYSSGWPYYYGMDVWGQGTTVTVSS VL: SYELTQPPSVSVSPGQTASITCSGDKLGDKYASWYQQKPGQSPVLVIYQDSKRPSGIPERFSGSNSGNTATLTISGTQAEDEADYYCQLYGHTITVFGGGTKLTVL
868 nM	202 nM	3.5 nM	5 nM	3.2 nM	4.4 nM	A-015 (antibody, V domains shown, tested as IgG) VH: QVQLVQSGAEVKKPGSSVKVSCKASGGSFQSYAINWVRQAPGQGLEWMGGIIPGFSTANYAQKFQGRVTITADESTSTAYMELSSLRSEDTAVYYCAKDLGTYSSGWPYYYGMDVWGQGTTVTVSS VL: SYELTQPPSVSVSPGQTASITCSGDKLGDKYASWYQQKPGQSPVLVIYQDSKRPSGIPERFSGSNSGNTATLTISGTQAEDEADYYCQSTTHTSFVFGGGTKLTVL
342 nM	519 nM	73.1 nM	99.4 nM	65.8 nM	16.5 nM	A-003 (antibody, V domains shown, tested as IgG; also called parental antibody A-003) VH: QVQLVQSGAEVKKPGSSVKVSCKASGGTFSSYAISWVRQAPGQGLEWMGGIIPIFGTANYAQKFQGRVTITADESTSTAYMELSSLRSEDTAVYYCAKGPPVGSSSWYTDWYFDLWGRGTLVTVSS VL: SYELTQPPSVSVSPGQTASITCSGDKLGDKYASWYQQKPGQSPVLVIYQDSKRPSGIPERFSGSNSGNTATLTISGTQAEDEADYYCLSYGAHSHGVVFGGGTKLTVL
82.4 nM	230 nM	4.3 nM	3.1 nM	6.8 nM	7.5 nM	A-023 (antibody, V domains shown, tested as IgG) VH: QVQLVQSGAEVKKPGSSVKVSCKASGYTFQQYAMSWVRQAPGQGLEWIGGIIPQFSTSVYAQKFQGRVTITADESTSTAYMELSSLRSEDTAVYYCAKGPPVGSSSWYTDWYFDLWGRGTLVTVSS VL: SYELTQPPSVSVSPGQTASITCSGDKLGDKYASWYQQKPGQSPVLVIYQDSKRPSGIPERFSGSNSGNTATLTISGTQAEDEADYYCLSYGAHSHGVVFGGGTKLTVL
31.8 nM	64.8 nM	3.6 nM	1.2 nM	3.3 nM	3.9 nM	A-024 (antibody, V domains shown, tested as IgG) VH: QVQLVQSGAEVKKPGSSVKVSCKASGYTFTGSAMSWVRQAPGQGLEWMGGILPIFGTSVYAQKFQGRVTITADESTSTAYMELSSLRSEDTAVYYCAKGPPVGSSSWYTDWYFDLWGRGTLVTVSS VL: SYELTQPPSVSVSPGQTASITCSGDKLGDKYASWYQQKPGQSPVLVIYQDSKRPSGIPERFSGSNSGNTATLTISGTQAEDEADYYCLSYGAHSHGVVFGGGTKLTVL
